Measurements: US20090081707A1 (published 2009)

Legend:
[1] = molecular target: trkC variant s5a immunoadhesin (trkC Val297 to Thr420 replaced with trkA Ser277 to Val402) (human); assay: saturation binding with 125I-NGF on immunoadhesin
[2] = molecular target: trkC variant s5a immunoadhesin (trkC Val297 to Thr420 replaced with trkA Ser277 to Val402) (human); assay: competitive displacement of labelled NGF on immunoadhesin
[3] = molecular target: T1, trkB-IgG immunoadhesin (chimera of human trkB extracellular domain with human IgG-1 Fc) (human, UniProt Q16620 32-422); assay: competitive displacement of labelled BDNF from trkB-IgG by unlabelled NT3
T1 construct: also called trkB full length receptor (as immunoadhesin); not shown: human IgG-1 heavy chain constant region from aspartic acid 216 of the hinge to residue 441 (Kabat numbering, 114 = first)

[4] = molecular target: T2, trkC-IgG immunoadhesin (chimera of human trkC extracellular domain with human IgG-1 Fc) (human, UniProt Q16288 32-413); assay: competitive displacement of labelled BDNF on immunoadhesin
T2 construct: also called trkC wild-type; trkC full length receptor (as immunoadhesin); not shown: human IgG-1 heavy chain constant region from aspartic acid 216 of the hinge to residue 441 (Kabat numbering, 114 = first)

[5] = molecular target: T1, trkB-IgG immunoadhesin (chimera of …); assay: competitive displacement of labelled BDNF from trkB-IgG by unlabelled BDNF
[6] = molecular target: T3, trkA-IgG immunoadhesin (chimera of human trkA extracellular domain with human IgG-1 Fc) (human, UniProt P04629 33-408); assay: competitive displacement of iodinated neurotrophin from trk-IgG
T3 construct: also called trkA-IgG chimera; native trkA; not shown: human IgG-1 heavy chain constant region from aspartic acid 216 of the hinge to residue 441 (Kabat numbering, 114 = first)

[7] = molecular target: T1, trkB-IgG immunoadhesin (chimera of …); assay: competitive displacement of labelled BDNF from trkB-IgG by unlabelled NT4/5

T1 sequence (Q16620 32-422 limits assumed, change not shown): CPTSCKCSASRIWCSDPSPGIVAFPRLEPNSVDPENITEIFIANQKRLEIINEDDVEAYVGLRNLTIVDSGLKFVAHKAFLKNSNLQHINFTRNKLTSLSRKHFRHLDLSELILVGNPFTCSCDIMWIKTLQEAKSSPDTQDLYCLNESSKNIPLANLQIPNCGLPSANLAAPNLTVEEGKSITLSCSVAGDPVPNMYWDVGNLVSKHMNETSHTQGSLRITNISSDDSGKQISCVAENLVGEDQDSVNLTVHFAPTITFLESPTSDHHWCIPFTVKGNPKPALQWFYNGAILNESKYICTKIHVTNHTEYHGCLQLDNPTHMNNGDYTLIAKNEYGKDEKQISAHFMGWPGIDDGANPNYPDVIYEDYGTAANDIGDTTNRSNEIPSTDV
Sequence of trkC variant s5a immunoadhesin (trkC Val297 to Thr420 replaced with trkA Ser277 to Val402) (human) (chain, as listed by the source mutant): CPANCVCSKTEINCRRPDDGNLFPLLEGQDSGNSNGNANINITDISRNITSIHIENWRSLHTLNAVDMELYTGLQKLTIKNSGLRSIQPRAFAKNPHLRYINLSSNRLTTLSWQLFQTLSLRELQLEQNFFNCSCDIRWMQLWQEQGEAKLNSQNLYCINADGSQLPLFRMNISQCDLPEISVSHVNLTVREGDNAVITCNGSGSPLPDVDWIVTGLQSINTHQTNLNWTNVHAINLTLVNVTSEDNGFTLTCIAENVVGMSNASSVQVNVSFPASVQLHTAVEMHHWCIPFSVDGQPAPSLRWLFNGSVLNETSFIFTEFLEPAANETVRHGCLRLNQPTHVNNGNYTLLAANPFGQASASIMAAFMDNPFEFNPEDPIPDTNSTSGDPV
T3 sequence (P04629 other isoform, or with tags, fused parts or gaps mutant limits assumed): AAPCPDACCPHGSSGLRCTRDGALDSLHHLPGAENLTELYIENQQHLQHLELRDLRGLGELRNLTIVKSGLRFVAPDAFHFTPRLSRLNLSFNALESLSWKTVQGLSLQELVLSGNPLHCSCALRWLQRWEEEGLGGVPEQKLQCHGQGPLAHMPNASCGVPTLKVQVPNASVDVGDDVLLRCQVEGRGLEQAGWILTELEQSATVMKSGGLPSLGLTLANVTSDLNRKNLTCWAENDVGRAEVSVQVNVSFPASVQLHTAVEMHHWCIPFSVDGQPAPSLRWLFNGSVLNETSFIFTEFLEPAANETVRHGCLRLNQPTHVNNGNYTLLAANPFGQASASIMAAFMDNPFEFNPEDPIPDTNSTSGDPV

Work on “nerve growth factor (NGF) (from UniProt P01138 122-241) (ligand)” yielded a Kd [1] of 0.0386 nM and an IC50 [2] of 0.0393 nM.

B1: neurotrophin-3 (NT-3) (ligand)
chain: YAEHKSHRGEYSVCDSESLWVTDKSSAIDIRGHQVTVLGEIKTGNSPVKQYFYETRCKEARPVKNGCRGIDDKHWNSQCKTSQTYVRALTSENNKLVGWRWIRIDTSCVCALSRKIGRT
In the case of B1, the IC50 [3] is reported as 18 nM.

B2: brain-derived neurotrophic factor (BDNF) (ligand)
chain: HSDPARRGELSVCDSISEWVTAADKKTAVDMSGGTVTVLEKVPVSKGQLKQYFYETKCNPMGYTKEGCRGIDKRHWNSQCRTTQSYVRALTMDSKKRIGWRFIRIDTSCVCTLTIKRGR
notes: also called NT-2
In the case of B2, the binding result [4] is reported as “no binding” and the IC50 [5] is reported as 0.081 nM.

B3: neurotrophin-4/5 (NT-4/5) (ligand)
chain: GVSETAPASRRGELAVCDAVSGWVTDRRTAVDLRGREVEVLGEVPAAGGSPLRQYFFETRCKADNAEEGGPGAGGGGCRGVDRRHWVSECKAKQSYVRALTADAQGRVGWRWIRIDTACVCTLLSRTGRA
notes: also called NT5
In the case of B3, the binding result [6] is reported as “binds” and the IC50 [7] is reported as 0.2 nM.
